From the supplement of paper PMC10724198
± gives the standard deviation of the averaged measurements.

Tested on: Saccharomyces cerevisiae
Assay: protein stability index of tFT-peptide fusion (C-terminal peptide) (PSI (0-1 scale)); higher = more stable (slower turnover)
Settings: temperature: 30 C
Protocol: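 MPS profiling in S. cerevisiae of the yeast C-terminome library: the last 12 aa of each annotated ORF are fused to the C-terminus of a sfGFP-mCherry timer, after a GGGS linker. Cells are FACS-sorted into 8 mCherry/sfGFP bins and deep-sequenced. PSI runs from 0 (unstable) to 1 (stable); wild type and das1Δ backgrounds, two technical replicates each.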

[1] = genetic background: das1 deletion

QKKEEAKHKASE [UFD2 C-terminal 12 aa]
protein stability index [1]: 0.711 ± 0.0087
protein stability index (genetic background: wild type): 0.721 ± 0.067

SQLLLFGFGAMV [MDM32 C-terminal 12 aa]
protein stability index [1]: 0.6998 ± 0.0031
protein stability index (genetic background: wild type): 0.705 ± 0.031

LSATIFLRGFLL [YIM2 C-terminal 12 aa]
protein stability index [1]: 0.675 ± 0.029
protein stability index (genetic background: wild type): 0.649 ± 0.031

TNDRLQSILHDL [MEF2 C-terminal 12 aa]
protein stability index [1]: 0.7148 ± 0.0071
protein stability index (genetic background: wild type): 0.702 ± 0.013

NATYNDSESSLN [SPO13 C-terminal 12 aa]
protein stability index [1]: 0.727 ± 0.016
protein stability index (genetic background: wild type): 0.721 ± 0.0083

SSDEEENEKELP [PWP2 C-terminal 12 aa]
protein stability index [1]: 0.67854 ± 0.00042
protein stability index (genetic background: wild type): 0.705 ± 0.039

AKPKYEKILIDN [RTC2 C-terminal 12 aa]
protein stability index [1]: 0.703 ± 0.011
protein stability index (genetic background: wild type): 0.666 ± 0.035

VVNNRRQSRTPK [BLI1 C-terminal 12 aa]
protein stability index [1]: 0.707 ± 0.044
protein stability index (genetic background: wild type): 0.661 ± 0.0082

NKVEENLEGLYL [RPT2 C-terminal 12 aa]
protein stability index [1]: 0.6934 ± 0.0063
protein stability index (genetic background: wild type): 0.671 ± 0.015

YVTYSGENTFGR [ATG8 C-terminal 12 aa]
protein stability index [1]: 0.703 ± 0.025
protein stability index (genetic background: wild type): 0.691 ± 0.021

PREILLRLMNDK [PRP6 C-terminal 12 aa]
protein stability index [1]: 0.726 ± 0.024
protein stability index (genetic background: wild type): 0.704 ± 0.096

EQFTRDFGQEGN [VPS4 C-terminal 12 aa]
protein stability index [1]: 0.7187 ± 0.0015
protein stability index (genetic background: wild type): 0.671 ± 0.016

YCFYINCIMNRR [RRT15 C-terminal 12 aa]
protein stability index [1]: 0.658 ± 0.031
protein stability index (genetic background: wild type): 0.551 ± 0.00072

GLCLCCTLDMLF [YDL012C C-terminal 12 aa]
protein stability index [1]: 0.676 ± 0.014
protein stability index (genetic background: wild type): 0.6621 ± 0.0026

PPAGIPPPPPLP [PAN1 C-terminal 12 aa]
protein stability index [1]: 0.719 ± 0.0093
protein stability index (genetic background: wild type): 0.711 ± 0.025

QSLVESPPPYVP [SNA4 C-terminal 12 aa]
protein stability index [1]: 0.6915 ± 0.0048
protein stability index (genetic background: wild type): 0.7 ± 0.015

CLSLDFVVPRPK [SHR5 C-terminal 12 aa]
protein stability index [1]: 0.74 ± 0.016
protein stability index (genetic background: wild type): 0.697 ± 0.048

PRDEQDSRKRNR [IBD2 C-terminal 12 aa]
protein stability index [1]: 0.699 ± 0.0085
protein stability index (genetic background: wild type): 0.7315 ± 0.0047

ERVKIGVQFYEE [RTG2 C-terminal 12 aa]
protein stability index [1]: 0.708 ± 0.013
protein stability index (genetic background: wild type): 0.736 ± 0.042

EASEPFKTFKNT [MMS22 C-terminal 12 aa]
protein stability index [1]: 0.724 ± 0.0073
protein stability index (genetic background: wild type): 0.696 ± 0.0087

SDLQKMLNKRKS [CWC24 C-terminal 12 aa]
protein stability index [1]: 0.69 ± 0.025
protein stability index (genetic background: wild type): 0.682 ± 0.0099

REKAEAEAEKKK [RPL13A C-terminal 12 aa]
protein stability index [1]: 0.704 ± 0.014
protein stability index (genetic background: wild type): 0.68 ± 0.0053

KQGKKKKDCVIM [SKT5 C-terminal 12 aa]
protein stability index [1]: 0.7193 ± 0.0022
protein stability index (genetic background: wild type): 0.696 ± 0.047

QTVSTYTKVTPK [NCE103 C-terminal 12 aa]
protein stability index [1]: 0.715 ± 0.016
protein stability index (genetic background: wild type): 0.702 ± 0.025

TDNTVYQKFLKY [ILV1 C-terminal 12 aa]
protein stability index [1]: 0.674 ± 0.014
protein stability index (genetic background: wild type): 0.692 ± 0.041

RTSPIDNVSNTH [NUT2 C-terminal 12 aa]
protein stability index [1]: 0.693 ± 0.0018
protein stability index (genetic background: wild type): 0.693 ± 0.046

YSYSSPKYTFPC [YKL147C C-terminal 12 aa]
protein stability index [1]: 0.6967 ± 0.0022
protein stability index (genetic background: wild type): 0.669 ± 0.063

RERAKKLVTWLI [SSY1 C-terminal 12 aa]
protein stability index [1]: 0.6701 ± 0.0019
protein stability index (genetic background: wild type): 0.475 ± 0.026

QFSFKAVTFLLI [YOR314W-A C-terminal 12 aa]
protein stability index [1]: 0.629 ± 0.048
protein stability index (genetic background: wild type): 0.563 ± 0.052

IKELENSRHEQS [MNN1 C-terminal 12 aa]
protein stability index [1]: 0.713 ± 0.049
protein stability index (genetic background: wild type): 0.6866 ± 7.9e-05

YSSDSSTLHSKV [FIG1 C-terminal 12 aa]
protein stability index [1]: 0.7 ± 0.021
protein stability index (genetic background: wild type): 0.6859 ± 0.0017

PTFLIPLRLCFV [EMA19 C-terminal 12 aa]
protein stability index [1]: 0.329 ± 0.02
protein stability index (genetic background: wild type): 0.336 ± 0.0072

DYWRKRGISSVY [ECM38 C-terminal 12 aa]
protein stability index [1]: 0.68703 ± 0.00044
protein stability index (genetic background: wild type): 0.72719 ± 0.0003

FKIFCNCIQSLA [YPL199C C-terminal 12 aa]
protein stability index [1]: 0.341 ± 0.0075
protein stability index (genetic background: wild type): 0.323 ± 0.009

GVRKEFYELKRD [PRE7 C-terminal 12 aa]
protein stability index [1]: 0.69519 ± 5.6e-05
protein stability index (genetic background: wild type): 0.693 ± 0.054

RKSENYLNGRQT [YNL067W-B C-terminal 12 aa]
protein stability index [1]: 0.681 ± 0.017
protein stability index (genetic background: wild type): 0.721 ± 0.0088

PILCTSEDFMGW [RGP1 C-terminal 12 aa]
protein stability index [1]: 0.709 ± 0.0088
protein stability index (genetic background: wild type): 0.732 ± 0.049

VNHNWYSIYEST [TFC3 C-terminal 12 aa]
protein stability index [1]: 0.729 ± 0.013
protein stability index (genetic background: wild type): 0.681 ± 0.0081

ARVASQLGQKKK [PRO3 C-terminal 12 aa]
protein stability index [1]: 0.6735 ± 0.0064
protein stability index (genetic background: wild type): 0.684 ± 0.014

SWISKEKRVSEE [HXT2 C-terminal 12 aa]
protein stability index [1]: 0.731 ± 0.032
protein stability index (genetic background: wild type): 0.809 ± 0.04

DDAKDSNNSSLR [WSC2 C-terminal 12 aa]
protein stability index [1]: 0.682 ± 0.011
protein stability index (genetic background: wild type): 0.724 ± 0.0081

SQSCPFFPLMDD [YDR246W-A C-terminal 12 aa]
protein stability index [1]: 0.738 ± 0.012
protein stability index (genetic background: wild type): 0.7463 ± 0.0073

SIKLTFGFGAVL [AHA1 C-terminal 12 aa]
protein stability index [1]: 0.6981 ± 0.0022
protein stability index (genetic background: wild type): 0.711 ± 0.0087

TSNSPSPDLMEK [SMA2 C-terminal 12 aa]
protein stability index [1]: 0.7018 ± 0.0012
protein stability index (genetic background: wild type): 0.705 ± 0.042

NAILNGGSVSGL [YAR066W C-terminal 12 aa]
protein stability index [1]: 0.677 ± 0.0079
protein stability index (genetic background: wild type): 0.668 ± 0.02

LYPLFEAVPFRR [YBL096C C-terminal 12 aa]
protein stability index [1]: 0.729 ± 0.014
protein stability index (genetic background: wild type): 0.734 ± 0.01

KKSPGGPRQRIK [MAP1 C-terminal 12 aa]
protein stability index [1]: 0.694 ± 0.033
protein stability index (genetic background: wild type): 0.692 ± 0.046

CTSCGYKFRTNN [RPA12 C-terminal 12 aa]
protein stability index [1]: 0.7397 ± 0.0049
protein stability index (genetic background: wild type): 0.2522 ± 0.002

NYAPHLSDATTS [MAC1 C-terminal 12 aa]
protein stability index [1]: 0.694 ± 0.013
protein stability index (genetic background: wild type): 0.7064 ± 0.0029

VISLAAQSKYVQ [MCO6 C-terminal 12 aa]
protein stability index [1]: 0.693 ± 0.019
protein stability index (genetic background: wild type): 0.697 ± 0.034

DVEDVERVSKKI [CDC34 C-terminal 12 aa]
protein stability index [1]: 0.704 ± 0.057
protein stability index (genetic background: wild type): 0.67 ± 0.032

RKESSGGCCIIC [RAS1 C-terminal 12 aa]
protein stability index [1]: 0.738 ± 0.014
protein stability index (genetic background: wild type): 0.709 ± 0.011

RSVYDYNGSLKV [CSR1 C-terminal 12 aa]
protein stability index [1]: 0.686 ± 0.012
protein stability index (genetic background: wild type): 0.691 ± 0.015

LNPIRSLRYCNY [YPP1 C-terminal 12 aa]
protein stability index [1]: 0.7156 ± 0.0026
protein stability index (genetic background: wild type): 0.629 ± 0.024

FSTIDGSIKDIK [FDO1 C-terminal 12 aa]
protein stability index [1]: 0.668 ± 0.023
protein stability index (genetic background: wild type): 0.6865 ± 0.0054

CFFLRKENGKDE [YLR120W-A C-terminal 12 aa]
protein stability index [1]: 0.709 ± 0.041
protein stability index (genetic background: wild type): 0.687 ± 0.017

VHPNWSPFEVFK [GCY1 C-terminal 12 aa]
protein stability index [1]: 0.744 ± 0.033
protein stability index (genetic background: wild type): 0.738 ± 0.037

HLSMVCDLELQL [NGL2 C-terminal 12 aa]
protein stability index [1]: 0.738 ± 0.072
protein stability index (genetic background: wild type): 0.659 ± 0.045

AIWIFYIDFRVH [YCL021W-A C-terminal 12 aa]
protein stability index [1]: 0.227 ± 0.024
protein stability index (genetic background: wild type): 0.201 ± 0.011

HNLESLVVAFNE [SPO16 C-terminal 12 aa]
protein stability index [1]: 0.6872 ± 0.003
protein stability index (genetic background: wild type): 0.717 ± 0.064

AKLSEGTSFRRK [RPS27A C-terminal 12 aa]
protein stability index [1]: 0.6952 ± 0.0023
protein stability index (genetic background: wild type): 0.681 ± 0.037
